± gives the uncertainty stated by the source.

The data set in a line: amyloid nucleation score (Sup35N fusion, yeast selection) (log enrichment); library NNK3; higher = more nucleation; inactive = no reads after selection. An outline of the steps: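 Nucleation score is defined as the DiMSum log enrichment of output over input reads, with centring on the mode score of non-aggregating sequences. A minimum of 100 input reads was required for each sequence. Reads came from Illumina sequencing of plasmid inserts from psi-negative yeast expressing Sup35N fused to peptides of 20 random codons, induced with 100 μM copper sulfate for 24 hours and grown 7 days at 30°C on medium lacking adenine and uracil.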
On to SGRVSTDEKLVKFLRN, for which the amyloid nucleation score result was “inactive”.

In the case of ITSGFDVEKCGNVNLSWEVW, the amyloid nucleation score result was “inactive”.

As for SVVMVRSVYIERSVEPPAPG, the amyloid nucleation score is -0.607 ± 1.4.

Regarding SIGWSMFDNSMVREIRTRTC, the amyloid nucleation score entry was “inactive”.

Take GICKGNMYRFSMSYDSNLIM: the amyloid nucleation score entry was “inactive”.

As for HWCRQNNSIFMRS, the amyloid nucleation score entry is “inactive”.

Consider SLVEAGMFTQFS, for which the amyloid nucleation score entry was “inactive”.

Take RTSVISISSLILALRGLYSR: the amyloid nucleation score result was “inactive”.

Consider SHHSL, for which the amyloid nucleation score result is “inactive”.

On to RTLTSDTHIRFLDQLSRYIW, for which the amyloid nucleation score result is “inactive”.

In the case of NHLLSSSGSNGMLKLIRFIG, the amyloid nucleation score result was “inactive”.

For the substance DMQHPFDFKRQ, the amyloid nucleation score result is “inactive”.

For YMVMFAPSFSWRVSVQDKGN, the amyloid nucleation score came to 3.08 ± 0.063.

In the case of NHLSPMRTKLYLKETNPSSA, the amyloid nucleation score entry was “inactive”.

On to NGLRRSVLGLRL, for which the amyloid nucleation score entry was “inactive”.

Turning to RVPIYVHKI, the amyloid nucleation score entry is “inactive”.

DIMLYSWITCIMSSAPPRDN displayed an amyloid nucleation score of 1.74 ± 0.11.

Take MASVSREAVQYNAWESMAIY: the amyloid nucleation score entry was “inactive”.

Consider GVWKLVSRARNDSINLR, for which the amyloid nucleation score entry is “inactive”.

Regarding TNIHKTVSMKW, the amyloid nucleation score entry was “inactive”.

On to NTLWYIWGG, for which the amyloid nucleation score entry is “inactive”.

LSPYRYSCYPYPTYSRYP registered an amyloid nucleation score of 0.44 ± 0.24.

On to LNFEATSYLTMRYDLSYVRF, for which the amyloid nucleation score result was “inactive”.

STWYSFDFRYFLDTIVCHMF came in with an amyloid nucleation score of 1.68 ± 0.11.

Turning to FNIEASYAPVRCCCKPLLAR, the amyloid nucleation score entry is “inactive”.

As to TRMRTCSKRY, the amyloid nucleation score result is “inactive”.

With VGVSISLSRARWGQIAMEET, the amyloid nucleation score stood at 1.05 ± 0.2.

As to YARWDRSKYMTRYCHCCYFL, the amyloid nucleation score entry was “inactive”.

As to WYADICCCQIFRCWKLDRWS, the amyloid nucleation score result was “inactive”.

Turning to LVYLQDLQLSSMLDFHSCM, the amyloid nucleation score entry was “inactive”.

Take LCCGVCR: the amyloid nucleation score entry is “inactive”.

Turning to WASDNVEGDWWYWW, the amyloid nucleation score is 0.017 ± 0.57.

With CNIISQTRGHEISQCGSWMW, the amyloid nucleation score entry was “inactive”.

Regarding RYLTNLWNYTFLINRAMLTY, the amyloid nucleation score result is “inactive”.

GFLPA: the amyloid nucleation score result was “inactive”.

Turning to CDNYVLPNYRYLSGFFKFGL, the amyloid nucleation score result was “inactive”.

As to CYWTYVRLSSVFRDHIVALT, the amyloid nucleation score entry is “inactive”.

Consider MRMHALAVNIGCCYTCVVVT, for which the amyloid nucleation score is 0.866 ± 0.099.

As for IVDGWR, the amyloid nucleation score entry was “inactive”.

Consider GYYYNSMNFRWFIKMVVMVR, for which the amyloid nucleation score result was “inactive”.

Regarding NLPHRLVTNRMCGAGGFGII, the amyloid nucleation score entry was “inactive”.

For SKPLYNSWIPMCLLFKVPPF, the amyloid nucleation score entry was “inactive”.

GMRFCVNVVCMRSLPSCAMK yielded an amyloid nucleation score of 1.43 ± 0.095.

For the substance LFDLVYRWTWNED, the amyloid nucleation score was -0.592 ± 0.76.

For KMRRVLLSLSVYMNCKSMVR, the amyloid nucleation score result is “inactive”.

Consider AMIMSFFWRKVT, for which the amyloid nucleation score entry is “inactive”.

In turn, TISCTDNFCSFILIRDGLTH displayed an amyloid nucleation score of 1.96 ± 0.059.

With NVYIVSIRMFCDYRVTAPKT, the amyloid nucleation score was determined as 2.35 ± 0.068.

Take TCQRRYKKFS: the amyloid nucleation score was -0.633 ± 0.52.

Regarding WLYARISADHDCLLKPELRM, the amyloid nucleation score result is “inactive”.

SMIKPAIFGYNVMLVPYINC: the amyloid nucleation score result was “inactive”.

Consider AVYGVFRRRS, for which the amyloid nucleation score entry was “inactive”.

For the substance ITVCYMNKIWLK, the amyloid nucleation score result is “inactive”.

Turning to GWMQGVLSELTTTLVMESAR, the amyloid nucleation score entry is “inactive”.

In the case of SYVLLHHLLVMSWVRV, the amyloid nucleation score result was “inactive”.

For the substance RFIISCQRYVETTT, the amyloid nucleation score entry is “inactive”.

Take LSSGG: the amyloid nucleation score came to 0.088 ± 0.4.

In the case of RKQRNWCTTPVVRFRVYGYA, the amyloid nucleation score result is “inactive”.

As to CCRLVRHFE, the amyloid nucleation score result was “inactive”.

HWLFVVKMMKS gave an amyloid nucleation score of -0.093 ± 0.41.

For SGMLDWDWVSRVSIGVCKVW, the amyloid nucleation score result is “inactive”.

Turning to LSYVRCVRWWY, the amyloid nucleation score entry is “inactive”.

Turning to QAIQPSMQGLWQRALTSRSP, the amyloid nucleation score entry is “inactive”.

TYFDFVLYV: the amyloid nucleation score entry was “inactive”.

On to RYRGFNVVVLIGKDRVGSAM, for which the amyloid nucleation score entry was “inactive”.

In the case of DFKILKVHKSRSSNSGSEDW, the amyloid nucleation score result was “inactive”.

Regarding QLLGNGP, the amyloid nucleation score result was “inactive”.

For the substance LKIGTFCSNPGSLIVVYLTV, the amyloid nucleation score entry was “inactive”.

Regarding LSLSRRGYQLLLEASGRCYV, the amyloid nucleation score result is “inactive”.

Turning to ERHDGCFQ, the amyloid nucleation score entry was “inactive”.

On to MIFSRAISDGSFLTVFV, for which the amyloid nucleation score is -0.32 ± 0.8.

For LPSICVSPI, the amyloid nucleation score entry was “inactive”.

Take YGSVFSMSMTHA: the amyloid nucleation score entry is “inactive”.

As for SIEMQYNDMRLR, the amyloid nucleation score result was “inactive”.

For IRVMA, the amyloid nucleation score entry was “inactive”.

Regarding VRDCTSQLINDGNNLVPGMW, the amyloid nucleation score result was “inactive”.

Turning to AREYDWQDYILVSVMYTLVW, the amyloid nucleation score result is “inactive”.

RLNIYLWGVGLTRDVIYPPS gave an amyloid nucleation score of 1.66 ± 0.1.

In the case of EYYGRVLSLTVTNIHFFRVF, the amyloid nucleation score entry was “inactive”.

As to IYMRRESGVLGEQ, the amyloid nucleation score entry is “inactive”.

On to GFSLFYYL, for which the amyloid nucleation score entry was “inactive”.

Turning to VIMYHMKFDNEIWVMHLLRN, the amyloid nucleation score entry was “inactive”.

For the substance ATLDTER, the amyloid nucleation score result was “inactive”.

Regarding TEFPQEEPGTSLAQFP, the amyloid nucleation score is -0.69 ± 1.1.

Turning to ITCCM, the amyloid nucleation score entry is “inactive”.

Consider TCWFGIQLSGL, for which the amyloid nucleation score was found to be 0.651 ± 0.2.

For TARYIW, the amyloid nucleation score entry was “inactive”.

For LMGLNYAWDAFWLIFPGLCF, the amyloid nucleation score entry was “inactive”.

Take RTVELEIHGLHV: the amyloid nucleation score result was “inactive”.

As for MCLVFKTEIRGLKAFCMCSF, the amyloid nucleation score entry was “inactive”.

TMLLLWYLHWSPAPRDCYLP: the amyloid nucleation score entry is “inactive”.

As to FHILIFVKTP, the amyloid nucleation score result was “inactive”.

Turning to EGGLDFVFLYYGIICWVVAA, the amyloid nucleation score is 0.282 ± 0.74.

VYSLE: the amyloid nucleation score entry is “inactive”.

On to IRTGDLVFVWYIRVTNTIPC, for which the amyloid nucleation score entry is “inactive”.

FRDIRFAQSMMLSRKIIALL: the amyloid nucleation score entry is “inactive”.

In the case of HSMQCNT, the amyloid nucleation score entry is “inactive”.

As for LVLVSTFMHVGDVCYHMYY, the amyloid nucleation score amounted to 2.99 ± 0.057.

NRNATSCGKPAFNKWNYFCQ: the amyloid nucleation score entry was “inactive”.

In the case of QYVSSTFHV, the amyloid nucleation score result is “inactive”.

FTLLIYCYYLYYRCFCYVVR: the amyloid nucleation score entry was “inactive”.

As to ICIHLELRILCPHHAPDGSL, the amyloid nucleation score is -0.118 ± 0.43.

As for IPAELDRQNSSAVNTPYHEM, the amyloid nucleation score result was “inactive”.

Consider NASNHSVSTRCVVDRG, for which the amyloid nucleation score result is “inactive”.

As for REYRIFLVPCFSISDRGGSW, the amyloid nucleation score result is “inactive”.

As to VRSRLGSGRDEKPRALSSCM, the amyloid nucleation score result is “inactive”.

Regarding YCRSSPTLTFCQYSL, the amyloid nucleation score entry was “inactive”.

For the substance KFDGLYNSFTVMNFAIMVYE, the amyloid nucleation score amounted to 1.65 ± 0.12.

For IAGTIRVFYVFKAYADSPTW, the amyloid nucleation score result is “inactive”.

Turning to MFRTRTNNHDSVGRYLVTMN, the amyloid nucleation score result is “inactive”.

FMSFSRGCTWSLGWA: the amyloid nucleation score result is “inactive”.

In the case of FYTMELISVQRI, the amyloid nucleation score entry is “inactive”.

In the case of DLLQVLPCVLDSYGARAVRC, the amyloid nucleation score result was “inactive”.

Consider CHILKPWLGVRKPSPFCNYS, for which the amyloid nucleation score result was “inactive”.

Consider YRIESFIGY, for which the amyloid nucleation score result is “inactive”.

For the substance VDVERIQFRSICLCLSTFCV, the amyloid nucleation score is 1.53 ± 0.081.

With VWMVCSPSGIRLANSFVVDI, the amyloid nucleation score entry is “inactive”.

Substance SRCSSGRLCWRFASHSRGTS had an amyloid nucleation score of -0.826 ± 1.4.

Take CVNTIFTRRFWNEGSIPAGL: the amyloid nucleation score entry was “inactive”.

ENVARGAMFCPMHRGFQSSE: the amyloid nucleation score result was “inactive”.

Take HVILICLSFYTKFICPIPEV: the amyloid nucleation score result was “inactive”.

On to YRSLITLQAIRCGIWFCGLW, for which the amyloid nucleation score entry is “inactive”.

For SRRKGQVVGCLQTMCCCKVE, the amyloid nucleation score result is “inactive”.

In the case of HKIWVVQQWGRRRQQ, the amyloid nucleation score result was “inactive”.

Consider KEDCGGQVNKTSGASVSSLC, for which the amyloid nucleation score entry is “inactive”.

The substance NTHAVLICKCKDCEWNMIGG returned an amyloid nucleation score of 0.246 ± 0.66.

In the case of FFLTYTIECVGLNHMILSIM, the amyloid nucleation score entry is “inactive”.

As to KPSFDPFKN, the amyloid nucleation score entry is “inactive”.

Turning to YNSYSSYKIVKLY, the amyloid nucleation score result is “inactive”.

In the case of NLSNLLNLVRLVRGRLGNAA, the amyloid nucleation score entry is “inactive”.

LKVVVDQKVG: the amyloid nucleation score was 1.27 ± 0.15.

For the substance YFGKAMHLLGYSFETGLDWS, the amyloid nucleation score result was “inactive”.

For RFKTF, the amyloid nucleation score result was “inactive”.

Source of the values: the supplement of paper PMC12042874.
